In patent US20240084027A1 (BEIJING MABWORKS, published 2024):
Where two headings read alike, the source gives them in different places.

T1: mouse CD40 on HEK293A cells (mouse, UniProt P27512 20-289)
T1 sequence: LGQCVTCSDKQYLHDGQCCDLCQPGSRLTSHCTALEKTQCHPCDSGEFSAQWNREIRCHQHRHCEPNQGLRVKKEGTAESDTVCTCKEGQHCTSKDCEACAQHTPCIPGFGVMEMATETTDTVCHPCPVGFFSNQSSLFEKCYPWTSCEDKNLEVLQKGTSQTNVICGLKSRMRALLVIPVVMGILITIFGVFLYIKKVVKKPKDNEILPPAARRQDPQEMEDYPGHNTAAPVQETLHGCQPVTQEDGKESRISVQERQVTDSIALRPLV

T2: monkey CD40 on HEK293A/monkey CD40 cells (monkey, UniProt P25942 21-277 (human entry))
T2 chain: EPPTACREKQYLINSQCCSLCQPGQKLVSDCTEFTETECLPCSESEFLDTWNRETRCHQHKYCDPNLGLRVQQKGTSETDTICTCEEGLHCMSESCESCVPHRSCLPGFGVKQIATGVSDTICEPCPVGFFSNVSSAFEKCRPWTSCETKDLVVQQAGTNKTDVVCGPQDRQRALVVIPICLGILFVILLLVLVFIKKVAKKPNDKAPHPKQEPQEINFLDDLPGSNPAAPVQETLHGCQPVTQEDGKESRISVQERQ

B1: MBS307-1 (bispecific antibody, human IgG1, kappa, L234A L235A)
heavy 1: QVQLQESGPGLVKPSDTLSLTCAVSGYSITTNYYWNWIRQPPGKGLEWMGYIKYDGSNNYNPSLKNRITISVDTSKNQFSLKLSSVTAVDTAVYYCARLDYWGQGTLVTVSSASTKGPSVFPLAPSSKSTSGGTAALGCLVKDYFPEPVTVSWNSGALTSGVHTFPAVLQSSGLYSLSSVVTVPSSSLGTQTYICNVNHKPSNTKVDKKVEPKSCDKTHTCPPCPAPEAAGGPSVFLFPPKPKDTLMISRTPEVTCVVVDVSHEDPEVKFNWYVDGVEVHNAKTKPREEQYNSTYRVVSVLTVLHQDWLNGKEYKCKVSNKALPAPIEKTISKAKGQPREPQVYTLPPSREEMTKNQVSLWCLVKGFYPSDIAVEWESNGQPENNYKTTPPVLDSDGSFFLYSKLTVDKSRWQQGNVFSCSVMHEALHNHYTQKSLSLSPGGGGSGGGGSGGGGSGGGGSGIPPHVQKSVNNDMIVTDNNGAVKFPQLCKFCDVRFSTCDNQKSCMSNCSITSICEKPQEVCVAVWRKNDENITLETVCHDPKLPYHDFILEDAASPKCIMKEKKKPGETFFMCSCSSDECNDNIIFSEEYNTSNPD
light 1: DVVLTQSPLSLPVTLGQPASISCRSSQSLENSNGNTFLNWFQQRPGQSPRLLIYKVSNRFSGVPDRFSGSGSGTDFTLKISRVEAEDVGVYYCLQVTHVPFTFGQGTKLEIKRTVAAPSVFIFPPSDEQLKSGTASVVCLLNNFYPREAKVQWKVDNALQSGNSQESVTEQDSKDSTYSLSSTLTLSKADYEKHKVYACEVTHQGLSSPVTKSFNRGEC
heavy 2: QVQLQESGPGLVKPSQTLSLTCTVSGGSITSDYWNWIRQHPGNKLEYMGYISYTGSTYYNPSLKSRISITRDTSKNQFSLKLSSVTTADTAVYYCARYRDWDVRAMDYWGQGTTVTVSSASTKGPSVFPLAPSSKSTSGGTAALGCLVKDYFPEPVTVSWNSGALTSGVHTFPAVLQSSGLYSLSSVVTVPSSSLGTQTYICNVNHKPSNTKVDKKVEPKSCDKTHTCPPCPAPEAAGGPSVFLFPPKPKDTLMISRTPEVTCVVVDVSHEDPEVKFNWYVDGVEVHNAKTKPREEQYNSTYRVVSVLTVLHQDWLNGKEYKCKVSNKALPAPIEKTISKAKGQPREPQVYTLPPSREEMTKNQVSLSCAVKGFYPSDIAVEWESNGQPENNYKTTPPVLDSDGSFFLVSKLTVDKSRWQQGNVFSCSVMHEALHNHYTQKSLSLSPGGGGSGGGGSGGGGSGGGGSGIPPHVQKSVNNDMIVTDNNGAVKFPQLCKFCDVRFSTCDNQKSCMSNCSITSICEKPQEVCVAVWRKNDENITLETVCHDPKLPYHDFILEDAASPKCIMKEKKKPGETFFMCSCSSDECNDNIIFSEEYNTSNPD
light 2: not shown
notes: Both long chains carry linker 1-TGFBII at the C terminus; also called asymmetrical anti-CD40/PD-L1 antibody MBS307-1; MBS307-1-1 + MBS307-1-2
B2: MBS307-2 (bispecific antibody, human IgG1, kappa, L234A L235A)
heavy: QVQLQESGPGLVKPSQTLSLTCTVSGGSITSDYWNWIRQHPGNKLEYMGYISYTGSTYYNPSLKSRISITRDTSKNQFSLKLSSVTTADTAVYYCARYRDWDVRAMDYWGQGTTVTVSSASTKGPSVFPLAPSSKSTSGGTAALGCLVKDYFPEPVTVSWNSGALTSGVHTFPAVLQSSGLYSLSSVVTVPSSSLGTQTYICNVNHKPSNTKVDKKVEPKSCDKTHTCPPCPAPEAAGGPSVFLFPPKPKDTLMISRTPEVTCVVVDVSHEDPEVKFNWYVDGVEVHNAKTKPREEQYNSTYRVVSVLTVLHQDWLNGKEYKCKVSNKALGAPIEKTISKAKGQPREPQVYTLPPSREEMTKNQVSLTCLVKGFYPSDIAVEWESNGQPENNYKTTPPVLDSDGSFFLYSKLTVDKSRWQQGNVFSCSVMHEALHNHYTQKSLSLSPGSGGGGSGGGGSQVQLQESGPGLVKPSDTLSLTCAVSGYSITTNYYWNWIRQPPGKGLEWMGYIKYDGSNNYNPSLKNRITISVDTSKNQFSLKLSSVTAVDTAVYYCARLDYWGQGTLVTVSSGGGGSGGGGSGGGGSGGGSDVVLTQSPLSLPVTLGQPASISCRSSQSLENSNGNTFLNWFQQRPGQSPRLLIYKVSNRFSGVPDRFSGSGSGTDFTLKISRVEAEDVGVYYCLQVTHVPFTFGQGTKLEIK
light: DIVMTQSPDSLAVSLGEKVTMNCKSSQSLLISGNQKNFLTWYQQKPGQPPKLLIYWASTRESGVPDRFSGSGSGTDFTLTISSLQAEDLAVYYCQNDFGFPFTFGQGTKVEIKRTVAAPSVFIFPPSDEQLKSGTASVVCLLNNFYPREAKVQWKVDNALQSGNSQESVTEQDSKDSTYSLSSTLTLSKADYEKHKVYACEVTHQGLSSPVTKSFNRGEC
notes: Symmetric: full-length anti-PD-L1 antibody (56E5VH5VL4) with an anti-CD40 scFv at the C terminus of each heavy chain
B3: anti-PD-L1 antibody 56E5VH5VL4 (antibody, V domains shown)
VH: QVQLQESGPGLVKPSQTLSLTCTVSGGSITSDYWNWIRQHPGNKLEYMGYISYTGSTYYNPSLKSRISITRDTSKNQFSLKLSSVTTADTAVYYCARYRDWDVRAMDYWGQGTTVTVSS
VL: DIVMTQSPDSLAVSLGEKVTMNCKSSQSLLISGNQKNFLTWYQQKPGQPPKLLIYWASTRESGVPDRFSGSGSGTDFTLTISSLQAEDLAVYYCQNDFGFPFTFGQGTKVEIK
notes: also called the monospecific anti-PD-L1 antibody; 56E5VH5CL4 [sic]

How the values were obtained:
[1] = molecular target: T3, human PD-L1 on HEK293A/human PD-L1 cells (human, UniProt Q9NZQ7 19-290); experiment: FACS on HEK293A/human PD-L1 cells
Experimental: (§1) The bispecific antibodies as prepared above were tested for their binding capability to cell surface human, monkey and mouse CD40 proteins by FACS, using the HEK293A cells prepared in Example 1 that stably expressed human, monkey or mouse CD40. Briefly, a 96-well plate was seeded with 10⁵ HEK293A cells in 50 μl PBS, and then added with 100 μl serially diluted anti-CD40 antibody 714VH2VL2 and the bispecific antibodies of the disclosure (starting concentration at 40 μg/ml). After incubation at 4° C. for 1 h, the plate was washed by PBST for 3 times. The plate was added with 1:500 diluted APC-goat anti-mouse IgG (Cat #:405308, BioLegen, USA), incubated at 4° for 1 h, washed with PBS for 3 times, and subjected to fluorescence measurement in a FACS machine (BD).
(§2) Following the protocol of Example 4, the bispecific antibodies were tested for their binding capability to cell surface human, or monkey PD-L1 proteins by FACS, using the HEK293A cells prepared in Example 1 that stably expressed human or monkey […].

[2] = molecular target: monkey PD-L1 on HEK293A/monkey PD-L1 cells (monkey, UniProt Q9NZQ7 19-290 (human entry)); experiment: FACS on HEK293A/monkey PD-L1 cells
Experimental: as §1, §2

[3] = molecular target: T1, mouse CD40 on HEK293A cells; experiment: FACS on HEK293A cells expressing mouse CD40
Experimental: as §1

[4] = molecular target: T2, monkey CD40 on HEK293A/monkey CD40 cells; experiment: FACS on HEK293A/monkey CD40 cells
Experimental: as §1

[5] = molecular target: T4, human CD40 on HEK293A/human CD40 cells (human, UniProt P25942 21-277); experiment: FACS on HEK293A/human CD40 cells
T4 construct: also called HEK-Blue/CD40 cells
Experimental: as §1

[6] = molecular target: T3, human PD-L1 on HEK293A/human PD-L1 cells; experiment: FACS on HEK293A/human PD-L1 cells; remark: listed apart in the source
Experimental: as §1
(§3) Following the protocols in Example 4 and Example 5, the bi- or multi-specific antibodies of the disclosure were tested for their binding capability to human PD-L1 and human CD40 proteins by FACS using the HEK293A cells prepared in Example 1 that stably expressed human PD-L1 or human CD40.

[7] = molecular target: T3, human PD-L1 on HEK293A/human PD-L1 cells; experiment: FACS on HEK293A/human PD-L1 cells; remark: listed apart in the source
Experimental: as §1, §3

[8] = molecular target: T3, human PD-L1 on HEK293A/human PD-L1 cells; experiment: FACS on HEK293A/human PD-L1 cells; remark: listed apart in the source
Experimental: as §1, §3

[9] = molecular target: T3, human PD-L1 on HEK293A/human PD-L1 cells; experiment: FACS blocking assay on HEK293A/human PD-L1 cells; blocked ligand PD-1-Fc
Experimental: (§4) The bispecific antibodies were tested for their blocking activity on PD-1-PD-L1 binding by FACS using the HEK293A cells stably expressing human PD-L1 molecules as prepared in Example 1. Briefly, a 96-well plate was seeded with 10⁵ HEK293A/human PD-L1 cells in 100 μl cell culture medium, and then added with 50 μl serially diluted anti-PD-L1 antibody 56E5VH5VL4 or MBS307-3 molecules. After incubation at 4° C. for 1 h. the plate was washed with PBST for 3 times, added with 100 μl 200 μg/ml PD-1-Fc fusion proteins (Cat #:10377-10211, Sino Biological, CN), incubated at 4° C. for 1 h, washed with PBST for 3 times, and added with 1:500 diluted PE-goat anti-human IgG (Cat #:PAI-86078, Thermofisher, USA). After incubation at 4° C. for 1 h, the plate was washed with PBST for 3 times and measured for fluorescence using a FACS machine (BD).

[10] = molecular target: T3, human PD-L1 on HEK293A/human PD-L1 cells; experiment: as above; remark: listed apart in the source
Experimental: as §4
(§5) Following the protocol of Example 7, the bi- or multi-specific antibodies were tested for their capability to block PD-1-PD-L1 binding by FACS, using the HEK293A cells prepared in Example 1 that stably expressed human PD-L1 molecules.

[11] = molecular target: T3, human PD-L1 on HEK293A/human PD-L1 cells; experiment: as above; remark: listed apart in the source
Experimental: as §4, §5

Chain of monkey PD-L1 on HEK293A/monkey PD-L1 cells (Q9NZQ7 other isoform, or with tags, fused parts or gaps limits assumed): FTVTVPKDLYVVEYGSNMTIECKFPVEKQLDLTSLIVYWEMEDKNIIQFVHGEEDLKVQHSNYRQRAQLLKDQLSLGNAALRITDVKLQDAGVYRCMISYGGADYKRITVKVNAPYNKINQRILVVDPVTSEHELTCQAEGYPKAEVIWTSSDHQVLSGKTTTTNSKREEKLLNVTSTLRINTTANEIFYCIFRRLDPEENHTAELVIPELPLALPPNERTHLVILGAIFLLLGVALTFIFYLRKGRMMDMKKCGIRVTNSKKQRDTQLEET
T3 sequence (Q9NZQ7 19-290 limits assumed): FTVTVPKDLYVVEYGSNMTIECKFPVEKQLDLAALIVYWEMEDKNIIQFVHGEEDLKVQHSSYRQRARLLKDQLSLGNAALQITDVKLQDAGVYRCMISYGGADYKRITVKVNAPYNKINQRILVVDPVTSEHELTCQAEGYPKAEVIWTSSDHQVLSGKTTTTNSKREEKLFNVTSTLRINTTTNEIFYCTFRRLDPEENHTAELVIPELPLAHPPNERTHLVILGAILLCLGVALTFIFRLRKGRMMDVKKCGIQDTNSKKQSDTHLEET

Row | Binder | EC50 (read off the curve) [1] | binding result [2] | binding result [3] | EC50 (read off the curve) [4] | EC50 (read off the curve) [5] | EC50 (read off the curve) [2] | binding result [4] | binding result [5] | EC50 (read off the curve) [6] | EC50 (read off the curve) [7] | EC50 (read off the curve) [8] | IC50 (read off the curve) [9] | IC50 (read off the curve) [10] | IC50 (read off the curve) [11]
1 | B1 | ~0.3 µg/mL | binds | no binding (tested: starting concentration at 40 µg/ml) | ~0.2 µg/mL | ~0.2 µg/mL | – | – | – | – | – | – | – | – | –
2 | B2 | ~0.1 µg/mL | – | no binding (tested: starting concentration at 40 µg/ml) | – | – | ~0.04 µg/mL | binds | binds | – | – | – | – | – | –
3 | B3 | ~0.07 µg/mL | – | – | – | – | ~0.04 µg/mL | – | – | ~0.04 µg/mL | ~0.05 µg/mL | ~0.04 µg/mL | ~0.06 µg/mL | ~0.06 µg/mL | ~0.02 µg/mL
